Laboratory results: publication PMC3458536 (Nucleic Acids Research, 2012)

B1: His-C (C-terminal B/A repeat domain of YB-1, amino acids 128-324) (domain or fragment)
chain: PGGVPVQGSKYAADRNHYRRYPRRRGPPRNYQQNYQNSESGEKNEGSESAPEGQAQQRRPYRRRRFPPYYMRRPYGRRPQYSNPPVQGEVMEGADNQGAGEQGRPVRQNMYRGYRPRFRRGPPRQRQPREDGNEEDKENQGDETQGQQPPQRRYRRNFNYRRRRPENPKPQDGKETKAADPPAENSSAPEAEQGGAE
B2: GST-U2AF35 (natural protein)
chain: MAEYLASIFGTEKDKVNCSFYFKIGACRHGDRCSRLHNKPTFSQTIALLNIYRNPQNSSQSADGLRCAVSDVEMQEHYDEFFEEVFTEMEEKYGEVEEMNVCDNLGDHLVGNVYVKFRREEDAEKAVIDLNNRWFNGQPIHAELSPVTDFREACCRQYEMGECTRGGFCNFMHLKPISRELRRELYGRRRKKHRSRSRSRERRSRSRDRGRGGGGGGGGGGGGRERDRRRSRDRERSGRF

How the values were obtained:
Test in all cases: pull-down
GST-U2AF65 = GST-U2AF65 (UniProt P26368 1-475)
GST-U2AF35 = molecular target: B2
[1] = molecular target: His-YB-1 (recombinant His-tagged full-length YB-1) (human, UniProt P67809 1-324)

Sequence of GST-U2AF65 (P26368 whole entry, one chain of several): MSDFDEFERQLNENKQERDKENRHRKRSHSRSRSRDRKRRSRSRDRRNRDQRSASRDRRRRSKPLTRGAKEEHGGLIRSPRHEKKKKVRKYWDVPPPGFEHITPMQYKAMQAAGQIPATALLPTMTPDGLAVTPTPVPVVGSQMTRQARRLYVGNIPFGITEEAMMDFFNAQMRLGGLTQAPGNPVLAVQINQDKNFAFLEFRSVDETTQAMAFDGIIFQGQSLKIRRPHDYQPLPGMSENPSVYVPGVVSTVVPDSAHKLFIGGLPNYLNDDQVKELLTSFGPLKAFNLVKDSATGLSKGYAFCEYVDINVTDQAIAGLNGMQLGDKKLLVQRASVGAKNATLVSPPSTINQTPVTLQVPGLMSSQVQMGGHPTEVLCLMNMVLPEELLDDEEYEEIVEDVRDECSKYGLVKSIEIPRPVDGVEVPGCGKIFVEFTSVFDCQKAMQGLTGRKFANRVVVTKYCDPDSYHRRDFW

Row | binding result (GST-U2AF65) | binding result (GST-U2AF35) | binding result [1] | Binder
1 | binds | binds |  | B1
2 |  |  | binds | B2
